Assay results reported in the DeepSol protein solubility set.

assay: soluble on expression in E. coli; label from the status in PepcDB or PDB records

| Sequence | soluble on expression in E. coli |
| --- | --- |
| MRGSHHHHHHGSACMFSNKTRQDSIQKMQQEELDLLIIGGGITGAGVAVQAAASGIKTGLIEMQDFAEGTSSRSTKLVHGGIRYLKTFDVEVVADTVGERAVVQGIAPHIPKPDPMLLPIYEDEGATTFNMFSVKVAMDLYDKLANVTGTKYENYTLTPEEVLEREPFLKKEGLKGAGVYLDFRNNDARLVIDNIKKAAEDGAYLVSKMKAVGFLYEGDQIVGVKARDLLTDEVIEIKAKLVINTSGPWVDKVRNLNFTRPVSPKMRPTKGIHLVVDAKKLPVPQPTYFDTGKQDGRMVFAIPRENKTYFGTTDTDYQGDFTDPKVTQEDVDYLLDVINHRYPEANITLADIEASWAGLRPLLIGNSGSPSTISRGSSLEREPDGLLTLSGGKITDYRKMAEGALRLIRQLLKEEYGIETKEIDSKKYQISGGNFDPTKLEETVTELAKEGVAAGLEEEDATYIADFYGTNARRIFELAKEMAPYPGLSLAESARLRYGLEEEMVLAPGDYLIRRTNHLLFERDQLDEIKQPVIDAIAEYFGWTEEEKAQQTKRLEALIAESDLRELKGEK | soluble |
| MQAYSNPGYSSFPSPTGLEPSCKSCGAHFANTARKQTCLDCKKNFCMTCSSQVGNGPRLCLLCQRFRATAFQREELMKMKVKDLRDYLSLHDISTEMCREKEELVLLVLGQQPVISQEDR | soluble |
| MGSDKIHHHHHHMNKQPLAFRMRPKKIEDVVGQQHLIGKGKIIWRMVQAHRLSSMILYGEPGTGKTSIASAIAGSTELSFRILNAATDGKKELQEVAEEGKMSGSVILLLDEIHRLDKTKQDFLLPHLESGRIVLIGATTENPYLSVTPAIRSRTQIFHVEALSEKDIKTAINRALSDKENGLGNYNIKLDDRAKNHLSTATNGDLRSALNGLELAVLSTKAVGKEKEIHITLPIIEETIQRKSMSGDKNGDAHYDVISAFQKSIRGSDADAGIYYLGRILEAGDLTIAARRLLVIAYEDVGLANPNAAAHAVQAVTAALQLGLPEARIPLANAVIELALSPKSNSAYGAINSAIGDIEKGNTGDVPIHLKNTRNWGKTKNQ | not soluble |
| MSLKKSFLLLPLSLVVLSACTSNFPAPISDADGNFSPSVIQSVNGSNVGGAWQPEIQKNSLPTTGNMVTPQQNFQPINQQPTMPTAPAQPAFQPSPKTVVSAPTVQTKTVTKTVADCVDGQHINIPRNPNTNAPDYSKISKGSYKGNTYKVNKGDTMFLIAYLAGIDVKELAALNNLSEPYNLSLGQVLKISNCDIKTVTTTVSVKQPAVTASTATPVKPAVTYTPGANGTQIGSDGTIIGPIKSEAGTSPSVPVATSSTQVTSSVNNANSTPINSNVVAPIASNVVWQWPTSGNIIQGFSSTDGGNKGIDISGSRGQAVKAAAAGRIVYAGNALRGYGNLIIIKHNDDFLSAYAHNDKILVADQQEVKAGQDIAKMGSSGTNTVKLHFEIRYKGKSVDPVRYLPRHEGHHHHHH | not soluble |
| MGQPPAEEAEQPGALAREFLAAMEPEPAPAPAPEEWLDILGNGLLRKKTLVPGPPGSSRPVKGQVVTVHLQTSLENGTRVQEEPELVFTLGDCDVIQALDLSVPLMDVGETAMVTADSKYCYGPQGSRSPYIPPHAALCLEVTLKTAVDLEHHHHHH | soluble |
| MAHHHHHHMAATKLGINGFGRIGRLVFRAAFGRKDIEVVAINDPFMDLNHLCYLLKYDSVHGQFPCEVTHADGFLLIGEKKVSVFAEKDPSQIPWGKCQVDVVCESTGVFLTKELASSHLKGGAKKVIMSAPPKDDTPIYVMGINHHQYDTKQLIVSNASCTTNCLAPLAKVINDRFGIVEGLMTTVHASTANQLVVDGPSKGGKDWRAGRCALSNIIPASTGAAKAVGKVLPELNGKLTGVAFRVPIGTVSVVDLVCRLQKPAKYEEVALEIKKAAEGPLKGILGYTEDEVVSQDFVHDNRSSIFDMKAGLALNDNFFKLVSWYDNEWGYSNRVLDLAVHITTS | soluble |
| MKIMIFICGEGLGHTSRCLALGKELLNAGHEIKFGAYGYSKELVEKTGYTAQEIPSEIKLVGKAGSLDLTGSIEATLKSAQLLGGPKLLKLLREFKPDVVVSDSYYLGTLAAMVLKLPVYLIINQSNMEEFFKNRGVPVRIIGKLTKKFYKEVFEKTDKILEHHHHHH | not soluble |
| MSLELTTQDIQLQQHFANKQAAIQGLAHALTAKGLVAEGYAQGMLNREAQHSTYLGNGIAIPHGTTDTRELVKQTGVTAMHFPQGLDWGDGNLVYVAIGIAAKSDEHLGILKQLTRVLSADGVEQALQQAKTAQQIIAIIKGEAQLTADFDASLIQLQFPASDMVQMSAVAGGLLKNTGCAENEFVADLVTKAPTHLGRGLWLVASDRAVKRTGMSIVTTANHCEYEQQAVKALIAFSVCNDVHQPLLNTITQCVFEQKQDQLLQADVQQLLNLFSGNAEQTIAQRTIAVGTITEETIAAETVAEPDSARAHTATFRIKNSHGLHARPGAMLVAEAKKFESNIRVSNLDGDGQVVNAKSLMKVIALGVKHNHQLQFTAEGPDAEAALQALGVAINAGLGEGHHHHHH | soluble |
| MGHHHHHHSHMKQWKEKKKKKKPIQEPEVPQIDVPNLKPIFGIPLADAVERTMMYDGIRLPAVFRECIDYVEKYGMKCEGIYRVSGIKSKVDELKAAYDREESTNLEDYEPNTVASLLKQYLRDLPENLLTKELMPRFEEACGRTTETEKVQEFQRLLKELPECNYLLISWLIVHMDHVIAKELETKMNIQNISIVLSPTVQISNRVLYVFFTHVQELFGNVVLKQVMKPLRWSNMATMPTLPETQAGIKEE | soluble |
| SDAILNYRPEGSEDYYALLGCDELSSVEQILAEFKIRALECHPDKHPENSKAVETFQKLQKAKEILCNAESRARYDHWRRSQMSMPFEQWEALADSVKTSMHWAVRSKKDLMLEGSGQTFTSSVPNKERSEQRETKKGDPDSNPEKMKQKEPKFPEEGISPQNPDSPGLSDLNCGHLRFRWSGDAPSELLRKFRNYEI | soluble |
| MGSDKIHHHHHHMGDDILSQEEVDALLRGVSGEDEDDDGGQDAQGVRGYDIGRQERIVRGRMPTLEIINERFARNLRIGLFNFLRRNAEISVGPVRVQKYSEFIRNLVVPTNLNLVHVKPLRGTGLLIFDPDLVFLIVDNLFGSDGRYHVRVEGRDFTPTEQRIIHRLLEVVFTECQKAWEPVYPIEFVYLRSEMNTQFANIATPTEVVVAMTFHIELGAGGGDFHICLPYSMVEPIRDLLSSTMQADRTEVDNRWVNLMTHQVQAAEVELVASLAHAKVTLGQILNLKNGDVVMIEIPERVEADVSGIPVFEASYGTVQGRYALKVEKILAGTNEFLESPGEHEQ | not soluble |
| MYVLIGGAGLIGQQLARQVLDQGHTVAVIDQDPQVCKMVRDRLGAMAFEGSAVNTDILLEAGICRADAVAAVLRQDALNLALVTLACHYGVSRIISRISQQDFIEPMRLAGAHHIISTVDLVVSTMVNAIECPQVESMLHFEQGQIEVFKLTLDSQSPVIGRSVAAIAQDRNFPSSSLIIGYQSHPQADLVIPSGNTVLEANATVLLATKPGLVQSLVNFLMPSLFSPLEHHHHHH | not soluble |
| GPGSMSINFSAPYLVTEMEEKVVTSLPSGDTASGSGESTASPPIVISAAVPYTEEEKKLLTEQLRRHQRQQSQGDDDSSWNETTLPFISSMVEKVLQLAAQNRESDSTKDSGSGDENKPQEKANATDDVAGADAVSKVDTFVEDNDYVLEQLRLQPWPFFTLPRLCEILADPYKYNSIGDKLRGEKLQSAIRRCVLVSAPLNCDVRNNSS | not soluble |
| MSLYVPGKQVTLAHIIASPNKEIYTKLGLPEGTSNALGILTITPSEAAIIAVDIATKSGDIQIGFIDRFSGSVVISGDVSSVEAALQAVIEGLQQILNFSVTCKEGHHHHHH | not soluble |
| YLYLEITNRCNLKCEMCFKQYWEDKEGDMDWDLFLKILDDAKEFPELKMIYFGGIGEPSVHPRFMDMVREVKRRGFRLGMSTNGVLLEDKILEEFVKLGVDVVYFSMDAIPTPSNIVTLGHITSKVVESRIKKLVELKKRYKTEKPTIGVEVVATKENYKQLPEMAIYLRNLGVDSMLISNLIPMTKEH | not soluble |
| MAHHHHHHMSNELLQGAALYKELLCVYHNLAESELGLSGGDVGALFQIKENLSQPISCDIQKCKEILTKLKLVLIHLPSVDPLVPIGKKNINELLLARHILEKGVIISILDRDIKAFSIYMAQLLLYYFDYCNFLPKSGNQNGIIGMYLLYLLSSNLIGDFHMTLEVISIEDQSDEYIKYALELEQHIMDGYFHHVLTKKENIPLYLYSLFIERLYNTIRHKLADCLFASSNCISSEYACELLKLGSEQELCQFIGEYNEAKTSQGECNLLWEVRNKKIYFNNQTVHVQDLPALEVLNNTIGYATELERIV | not soluble |
| MSQSKVAMKKDSMRKNKKLVINIALDKEVLASRVEADHDLGSVRDEKERLESSERRREVCSKAEDIVDKAIDNHSRVRGDGIMREADVGTGLSGALNRLREQGTFKEEGKVVGVKDNNHEDDRFKDRFKDIQIQRVNKWGRIMTEKEAYRSLCHGFHGKGPGKKKQEKQRKKHEDKSKQMESSERSVERIREIHAISKTPYIVL | soluble |
| MDPVFSRLLETANSVILGKEQPIRLCICCLLARGHLLIEDVPGVGKTTLARTLAALLGLKYQRIQFTSDLLPADVLGSSIYDATTHGFRFHPGPVFNPMVLADEINRSTPRAQSALLEAMEERQVTVEGETRPLPEPFFVIATQNPNTQIGTFPLPESQLDRFLMRIELGYPDPRAERELLMGEERYALLPQLPVCLPAERLLALQSRVRDVHASSALLDYVQALLHFSRESPLYQNGLSPRAGLALLHAAKAWALMDGRAAVLPEDIQAVLPPVAGHRLKLASGGGGMAETVAPLLRDVAIPLEHHHHHH | not soluble |
| MKVALGGTFEPLHEGHKKLIDVAIKLGGRDITIGVTSDRMARARIRSVLPFAIRAENVKRYVMRKYGFEPEIVKITNPYGKTLDVDFEYLVVSPETYEMALKINQKREELGKRKITIVKVDWMMAEDGKPISSTRIKRGEIDRYGGII | soluble |
| MGSDKIHHHHHHMEIDPRAQLIEWESSSLGVKGRMYVYTPPEYHPHGPALPVVYLLRGHEREWVNRREDDSRMGSAIDVYERVRARGEIGPLILAMPGLASTDNRIPGLLADFAAPHLTDAEGIGSGRFATFFFEEVLPLLEREFHAHPQARAITGFSLGGYMAVKAVALHPELFVSVSAYDGSFPYASDNGRRSRRYDTLFTASMFDPALGRPRDPDRLRDHNPICLLMRANRAALRRITWMIQYGPEHIEPWGANFYRGEYLLRALATLGIANATPIAALPDGAHTWAVADRHLEQALPLHYRAFERVMKSDP | not soluble |
| MKWAYKEENNFEKRRAEGDKIRRKYPDRIPVIVEKAPKSKLHDLDKKKYLVPSDLTVGQFYFLIRKRIQLRPEDALFFFVNNVIPQTMTTMGQLYQDHHEEDLFLYIAYSDESVYGGEVEKKE | not soluble |
| MGSDKIHHHHHHMTAELLRLLENVLRVGVVTEIDVDEWRVRVSAGGLHTDWLRWDALRAGSFSVWIPPSVGEQVLLGCIGGNPETAVIIGSIYSAANPAPGSSSSELVIKAPDGATVRYDAAAGALEASGMKTARIVASVGVTLETPVVECTEHLVAKTFSFTEGGTMKGDVNHTGGAFKSNGVQADEHSHGNVLNGPGWSDGTR | not soluble |
| MKTSYDDTRQHLLDTGYRIMAVKGFSGVGLNEILQSAGVPKGSFYHYFKSKEQFGQALLEDYFRVYLADMDQRFSAPGLNARERLMSYWQKWLDNACPPCDEQRCLVVKLSAEVADLSESMRITLRDGSDGIIERLVGCLGQGRDDGSLAPCDARHMASALYQLWLGASLLSKLHRSPGPLETAMQTTRSLLEI | soluble |
